One data set concerns the target T1, OT (Homo sapiens, UniProt P30559).
T1 sequence (P30559 1-389): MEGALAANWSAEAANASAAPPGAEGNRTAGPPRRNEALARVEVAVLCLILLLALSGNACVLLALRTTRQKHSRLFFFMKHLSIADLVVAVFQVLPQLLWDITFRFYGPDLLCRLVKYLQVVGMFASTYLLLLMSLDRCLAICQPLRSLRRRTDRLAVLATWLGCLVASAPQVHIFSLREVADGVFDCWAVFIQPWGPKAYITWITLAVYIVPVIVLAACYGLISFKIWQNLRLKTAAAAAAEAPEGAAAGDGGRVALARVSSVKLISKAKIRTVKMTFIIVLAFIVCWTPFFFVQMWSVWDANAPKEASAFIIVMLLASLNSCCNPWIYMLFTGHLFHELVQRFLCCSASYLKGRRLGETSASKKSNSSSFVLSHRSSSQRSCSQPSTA
In words: OT Calcium flux agonist assay (GPCRProfiler). The format is cell-based. The following applies: read-out: OT Ca^2+ Flux EC50. The procedure: Supplied compounds were prepared in DMSO and ultimately prepared in the Eurofins Discovery Services GPCRProfiler® Assay Buffer to concentrations that were three-fold higher than the final assay concentration. Similarly, vehicle controls and positive controls were prepared to ensure all assays were properly controlled.
All wells were prepared using the Eurofins Discovery Services GPCRProfiler® Assay Buffer. The GPCRProfiler® Assay Buffer was a modified Hanks Balanced Salt Solution (HBSS) where HBSS was supplemented to contain 20 mM HEPES and 2.5 mM Probenecid at pH7.4.
Compound(s) supplied were plated in duplicate for each concentration assayed.
Reference agonist, oxytocin, was prepared in a similar manner to serve as assay control. The reference agonist, oxytocin, was included at Emax (the concentration where the reference agonist elicited a maximal response).
The agonist assay was conducted on a […] instrument where the test compound(s), vehicle controls, and reference agonist were added to the assay plate after a fluorescence/luminescence baseline was established. […]
All plates were subjected to appropriate baseline corrections. Once baseline corrections were processed, maximum fluorescence/luminescence values were exported and data manipulated to calculate percentage activation and percentage inhibition. […]

Data set [1] in a line: In vivo plasma stability of oxytocin conjugate, 3 mg/kg iv. Also on record: species or system rats. The following applies: 3 mg/kg intravenously; for half-life: rat, plasma, iv, male Sprague-Dawley rats, read-out: In vivo Plasma stability t½ (converted). Here is the method: Conjugate was dissolved in PBS (Phosphate buffered saline) to a concentration of 3 mg/ml to form Dosing solution. Dosing solution was administered intravenously to male Sprague-Dawley rats via lateral tail vein at a volume of 1 ml/kg body weight, corresponding to a dose of 3 mg/kg. Venous blood samples were acquired from a jugular vein catheter at prescribed times after dosing and immediately placed on wet ice. These samples were centrifuged at 4C, with supernatant plasma transferred to a fresh tube for analysis.
Standard curve preparation: Stock solution was prepared by dissolving peptide conjugate and peptide into two separate vials in dimethylsulfoxide to 1 mg/ml. 10 uL of each stock was mixed with 980 uL rat plasma to form a working stock of 10,000 ng/ml in plasma. This was serially diluted in plasma to form standards of 5000, 1000, 500, 100, 50, 10, 5, 1, 0.5, and 0.1 ng/ml. Sample and standard preparation: 25 uL plasma sample or standard was transferred to a clean plate. 150 uL acetonitrile containing 100 ng/ml glyburide as internal standard was added to each vial and the plate vortexed to mix the contents. The plate was centrifuged at 4000 rpm at 4 C. 125 uL supernatant was transferred to a clean plate, mixed with 150 uL water and analyzed by LC/MS.

The nature of data set [2]: In vivo plasma stability of APJ agonist conjugates, 1 mg/kg iv. The following applies: rat, male Sprague-Dawley rats, 1 mg/kg intravenously, read-out: In vivo Plasma stability t½ (converted). Here is the method:
Conjugate was dissolved in PBS (Phosphate buffered saline) to a concentration of 1 mg/ml to form Dosing solution. Dosing solution was administered intravenously to male Sprague-Dawley rats via lateral tail vein at a volume of 1 ml/kg body weight, corresponding to a dose of 1 mg/kg. Venous blood samples were acquired from a jugular vein catheter at prescribed times after dosing and immediately placed on wet ice. These samples were centrifuged at 4C, with supernatant plasma transferred to a fresh tube for analysis.
• Standard curve preparation: Stock solution was prepared by dissolving peptide conjugate in water to 1 mg/ml. 10 uL of Stock was mixed with 990 uL rat plasma to form a working stock of 10,000 ng/ml in plasma. This was serially diluted in plasma to form standards of 5000, 1000, 500, 100, 50, 10, 5 and 1 ng/ml. • Sample and standard preparation: 25 uL plasma sample or standard was transferred to a clean plate. 150 uL acetonitrile:MeOH (1:1) containing 100 ng/ml glyburide as internal standard was added to each vial and the plate vortexed to mix the contents. The plate was centrifuged at 4000 rpm at 4 C. 125 uL supernatant was transferred to a clean plate, mixed with 50 uL water and analyzed by LC/MS.

Data set [3] can be described thus: Material quality check of GDF15 proteins (clipping, methionine oxidation, deamidation). It is filed as physicochemical. An excerpt:
The AHA-(200-308)-hGDF15 (SEQ ID NO: 7) was designed to remove the clipping site observed within the native protein as well as to remove the potential methioinine (M1) formylation site and the N-199 deamidation site.

The subject of data set [4] is Diet-induced obese male mice (C57BL/6NTac). Nature of the data set: DIO mice single 0.5 mg/kg sc dose: food intake and body weight. The following applies: exp 1 / exp 2 = separate in vivo experiments. Here is the method:
(§1) All animal studies described in this document were approved by the Novartis Institutes for Biomedical Research Animal Care and Use Committee in accordance with local and federal regulations and guidelines. Diet-induced obese male mice (C57BL/6NTac) were purchased from Taconic and fed a 60% fat diet (Research Diets D12492i) from 6-weeks of age onward. Upon arrival, mice were housed one animal per cage under a 12 h:12 h reverse light-dark cycle. Animals all received a minimum of 1 week acclimation prior to any use. Mice were typically studied between 3-4 months of age. […] On the day of study, mice were placed in fresh cages, and the old food removed. Approximately 1 h later and just prior to the dark cycle, mice received a single subcutaneous dose of either vehicle (30 mM sodium acetate, pH 4) or a lipid conjugated GDF15 analog (0.5 mg/kg). After all injections are completed, the mice were reweighed and a defined amount of food returned ([…] per mouse). In surrogate animals treated as described above, plasma was collected at the indicated times, and GDF15 levels were measured by ELISA as per the manufacturer's instructions (R&D Systems Quantikine Human GDF15 Immunoassay; DGD150). The activity and half-life of the conjugates of the invention were tested in the assay described supra.

Data set [5] can be described thus: DIO mice single 0.5 mg/kg sc dose: plasma GDF15 levels by ELISA (PK). The following applies: exp 1 / exp 2 = separate in vivo experiments. The procedure:
as §1

[6] abbreviates: clipping site R9/N10 (for the AHA protein: none detected).

Starred links: 1 amine or outer side, 2 acyl side, 3 side chain; linkers in the order of their positions; H or OH if unused. Positions of bridges follow the written chain, without caps; N, C: chain ends. Non-standard residues stand in square brackets, D forms with d. Residues, ends and D or L forms follow the SMILES beside them. Groups on a side chain read outwards from the residue. *: point of attachment. PEG24 = NCCOCCOCCOCCOCCOCCOCCOCCOCCOCCOCCOCCOCCOCCOCCOCCOCCOCCOCCOCCOCCOCCOCCOCCOCCC(=O)O; Malonyl(C11H23,(CH2)10COOH) = CCCCCCCCCCCC(CCCCCCCCCCC(=O)O)(C(=O)O)C(=O)*; NGly(3-aminopropyl) = O=C(CN(CCCN[*:3])[*:1])[*:2]; pGlu = O=C1CC[C@@H](C(=O)O)N1; NHPhenethyl = c1ccc(CCN*)cc1; dNle = CCCC[C@@H](N)C(=O)O; Nle = CCCC[C@H](N)C(=O)O; Sar = CNCC(=O)O

Broadly, the EC50 is the concentration needed to bring the measured effect to its halfway point.

As for `CC[C@H](C)[C@@H]1NC(=O)[C@H](Cc2ccc(O)cc2)NC(=O)CNC(=O)CC[C@@H](C(=O)N(C)CC(=O)N[C@@H](CC(C)C)C(=O)NCC(N)=O)NC(=O)[C@H](CC(N)=O)NC(=O)[C@H](CCC(N)=O)NC1=O` (GYIQNE[Sar]LG-NH2; lactam N-6), the 50% effective concentration (EC50) at OT amounted to 7.8 nM. For the same molecule, the half-life in data set [1] is 0.6 h.

With `C=CCCCCCCCCCC(CCCCCCCCCCC(=O)O)(C(=O)O)C(=O)NCCOCCOCCOCCOCCOCCOCCOCCOCCOCCOCCOCCOCCOCCOCCOCCOCCOCCOCCOCCOCCOCCOCCOCCn1nnc2c1CCC1C(CC2)[C@@H]1COC(=O)NCCCC[C@@H]1NC(=O)[C@H](Cc2c[nH]cn2)NC(=O)[C@@H](NC(=O)[C@H](CC(C)C)NC(=O)[C@H](CCCNC(=N)N)NC(=O)[C@@H]2CCCN2C(=O)[C@H](CCCNC(=N)N)NC(=O)[C@@H]2CCC(=O)N2)CSSC[C@@H](C(=O)N[C@@H](Cc2ccccc2)C(=O)O)NC(=O)[C@H](CCCC)NC(=O)[C@@H]2CCCN2C(=O)CNC1=O` (stereo partly drawn) [Example 21A], the half-life in data set [2] (plasma) was 444 min.

In the case of `CCCCCCCCCCCC(CCCCCCCCCCC(=O)O)(C(=O)O)C(=O)NCCOCCOCCOCCOCCOCCOCCOCCOCCOCCOCCOCCOCCOCCOCCOCCOCCOCCOCCOCCOCCOCCOCCOCCOCCC(=O)NCCCN(CC(=O)N[C@@H](CC(C)C)C(=O)NCC(N)=O)C(=O)[C@@H]1CCC(=O)NCC(=O)N[C@@H](Cc2ccc(O)cc2)C(=O)N[C@@H]([C@@H](C)CC)C(=O)N[C@@H](CCC(N)=O)C(=O)N[C@@H](CC(N)=O)C(=O)N1` (stereo partly drawn) [Example 26A] (GYIQNE[NGly(3-aminopropyl)]([PEG24-Malonyl(C11H23,(CH2)10COOH)])LG-NH2; lactam N-6), the EC50 at OT was found to be 8.4 nM. Also, the half-life in data set [1] is 46 h. In data set [1] (rats), the “increase in half-life compared to unconjugated oxytocin analog” value came to 75 fold.

Take `CCCC[C@@H](NC(=O)[C@@H]1CCCN1C(=O)CNC(=O)[C@H](CCCCN)NC(=O)[C@@H]1CSSC[C@H](NC(=O)[C@@H]2CCCN2C(=O)[C@H](CCCNC(=N)N)NC(=O)[C@@H]2CCC(=O)N2)C(=O)N[C@@H](CC(C)C)C(=O)N[C@@H](CO)C(=O)N1)C(=O)NCCc1ccccc1` [pE-R—P—C*-L-S—C*—K-G-P-(D-Nle)-NH(Phenethyl) (disulfide C^4-C^7)] ([pGlu]RPCLSCKGP[dNle]-NHPhenethyl; disulfide 4-7): the half-life in data set [2] (in vivo) is 54 min.

Turning to `CCCC[C@@H]1NC(=O)[C@@H]2CCCN2C(=O)CNC(=O)[C@H](CCCCN)NC(=O)[C@H](Cc2cnc[nH]2)NC(=O)[C@@H](NC(=O)[C@H](CC(C)C)NC(=O)[C@H](CCCNC(=N)N)NC(=O)[C@@H]2CCCN2C(=O)[C@H](CCCNC(=N)N)NC(=O)[C@@H]2CCC(=O)N2)CSSC[C@@H](C(=O)N[C@@H](Cc2ccccc2)C(=O)O)NC1=O` [pE-R—P—R-L-C*—H—K-G-P-Nle-C*—F—OH(Disulfide C^6-C^12)] ([pGlu]RPRLCHKGP[Nle]CF-OH; disulfide 6-12), in data set [2] (in vivo), the half-life is 42 min.

For the molecule “MHHHHHH-ARN-(200-308)-hGDF15: His-tagged hGDF15 with native sequence, compared with AHA variant in material quality check”, the Methionine oxidation entry in data set [3] (M1) is recorded as “M1: 12.0%”. In addition, in data set [3] (N10), the N-199 deamidation result is listed as “N10: 50.1%”. Further, the results for the clipping entry in data set [3] (clipping site N10/G11) and in data set [3] (setting [6]) were “N10/G11 (<1%)” and “R9/N10 (<1%)”, respectively.

B1: 12: GDF15 conjugate listed in Table 1 only; no example text in the patent (conjugate, UniProt Q99988 195-308, looked up)
Growth/differentiation factor …: ARARNGDHCPLGPGRCCRLHTVRASLEDLGWADWVLSPREVQVTMCIGACPSQFRAANMHAQIKTSLHRLKPDTVPAPCCVPASYNPMVLIQKTDTGVSLQTYDDLLAKDCHCI
modifications: conjugate
As to B1, in data set [4], the “Duration of action: Body weight (BW) reduction” value fell in the range of 6 to 8 days and the “Duration of action: Food Intake (FI) reduction” value lay within 6 to 8 days.

B2: hGDF15: non-conjugated hGDF15 (protein, UniProt Q99988 195-308, looked up)
Growth/differentiation factor …: B1 Growth/differentiation factor …
Take B2: in data set [4], the “Duration of action: Body weight (BW) reduction” value was found to be 1 days and the “Duration of action: Food Intake (FI) reduction” value is listed as 1 days. In data set [5], the “PK (1/2 life)” value stood at 1 h.

B3: AHA-(200-308)-hGDF15: GDF15 mutant designed to remove clipping site, methionine formylation site and N-199 deamidation site (protein)
chain: AHAGDHCPLGPGRCCRLHTVRASLEDLGWADWVLSPREVQVTMCIGACPSQFRAANMHAQIKTSLHRLKPDTVPAPCCVPASYNPMVLIQKTDTGVSLQTYDDLLAKDCHCI
modifications: GDF15 mutant, Intermediate 57 AHA-(200-308)- hGDF15
For the molecule B3, in data set [3] (setting [6]), the clipping result is “None”.

The values are drawn from patent publication US11752211B2, “Fatty acids and their use in conjugation to biomolecules” (NOVARTIS AG, priority 2014, dated 2023).
